Data as given in patent US11230591.

Experiments:
CMV virions = experiment: virion ELISA
[1] = target: pentameric gH complex on infectious CMV (neutralization assays) (human cytomegalovirus); experiment: cell-based or functional assay
[2] = target: recombinant pentameric gH complex (Towne strain) (human cytomegalovirus, Towne strain) (UniProt P17176); experiment: BLI competition on His-pentamer; competitor (antibody 2): 3-7
[3] = target: recombinant pentameric gH complex (Towne strain) (human cytomegalovirus, Towne strain) (UniProt P17176); experiment: BLI competition on His-pentamer; competitor (antibody 2): 1-32
[4] = target: recombinant pentameric gH complex (Towne strain) (human cytomegalovirus, Towne strain) (UniProt P17176); experiment: BLI competition on His-pentamer; competitor (antibody 2): 1-85
[5] = target: recombinant pentameric gH complex (Towne strain) (human cytomegalovirus, Towne strain) (UniProt P17176); experiment: BLI competition on His-pentamer; competitor (antibody 2): 2-18
[6] = target: recombinant pentameric gH complex (Towne strain) (human cytomegalovirus, Towne strain) (UniProt P17176); experiment: BLI competition on His-pentamer; competitor (antibody 2): 2-25
[7] = target: recombinant pentameric gH complex (Towne strain) (human cytomegalovirus, Towne strain) (UniProt P17176); experiment: BLI competition on His-pentamer; competitor (antibody 2): 3-15
[8] = target: recombinant pentameric gH complex (Towne strain) (human cytomegalovirus, Towne strain) (UniProt P17176); experiment: BLI competition on His-pentamer; competitor (antibody 2): 3-16
[9] = target: recombinant pentameric gH complex (Towne strain) (human cytomegalovirus, Towne strain) (UniProt P17176); experiment: BLI competition on His-pentamer; competitor (antibody 2): 57.4
[10] = target: recombinant pentameric gH complex (Towne strain) (human cytomegalovirus, Towne strain) (UniProt P17176); experiment: BLI competition on His-pentamer; competitor (antibody 2): 70.7
[11] = target: recombinant pentameric gH complex (Towne strain) (human cytomegalovirus, Towne strain) (UniProt P17176); experiment: BLI competition on His-pentamer; competitor (antibody 2): 1-103
[12] = target: recombinant pentameric gH complex (Towne strain) (human cytomegalovirus, Towne strain) (UniProt P17176); experiment: BLI competition on His-pentamer; competitor (antibody 2): 1-150
[13] = target: recombinant pentameric gH complex (Towne strain) (human cytomegalovirus, Towne strain) (UniProt P17176); experiment: BLI competition on His-pentamer; competitor (antibody 2): 124.4
[14] = target: recombinant pentameric gH complex (Towne strain) (human cytomegalovirus, Towne strain) (UniProt P17176); experiment: BLI competition on His-pentamer; competitor (antibody 2): 270.7
[15] = target: recombinant pentameric gH complex (Towne strain) (human cytomegalovirus, Towne strain) (UniProt P17176); experiment: BLI competition on His-pentamer; competitor (antibody 2): 276.1
[16] = target: recombinant pentameric gH complex (Towne strain) (human cytomegalovirus, Towne strain) (UniProt P17176); experiment: BLI competition on His-pentamer; competitor (antibody 2): 316.2
[17] = target: recombinant pentameric gH complex (Towne strain) (human cytomegalovirus, Towne strain) (UniProt P17176); experiment: BLI competition on His-pentamer; competitor (antibody 2): 324.4

Chain of recombinant pentameric gH complex (Towne strain) (human cytomegalovirus, Towne strain) (P17176 30-715, one chain of several): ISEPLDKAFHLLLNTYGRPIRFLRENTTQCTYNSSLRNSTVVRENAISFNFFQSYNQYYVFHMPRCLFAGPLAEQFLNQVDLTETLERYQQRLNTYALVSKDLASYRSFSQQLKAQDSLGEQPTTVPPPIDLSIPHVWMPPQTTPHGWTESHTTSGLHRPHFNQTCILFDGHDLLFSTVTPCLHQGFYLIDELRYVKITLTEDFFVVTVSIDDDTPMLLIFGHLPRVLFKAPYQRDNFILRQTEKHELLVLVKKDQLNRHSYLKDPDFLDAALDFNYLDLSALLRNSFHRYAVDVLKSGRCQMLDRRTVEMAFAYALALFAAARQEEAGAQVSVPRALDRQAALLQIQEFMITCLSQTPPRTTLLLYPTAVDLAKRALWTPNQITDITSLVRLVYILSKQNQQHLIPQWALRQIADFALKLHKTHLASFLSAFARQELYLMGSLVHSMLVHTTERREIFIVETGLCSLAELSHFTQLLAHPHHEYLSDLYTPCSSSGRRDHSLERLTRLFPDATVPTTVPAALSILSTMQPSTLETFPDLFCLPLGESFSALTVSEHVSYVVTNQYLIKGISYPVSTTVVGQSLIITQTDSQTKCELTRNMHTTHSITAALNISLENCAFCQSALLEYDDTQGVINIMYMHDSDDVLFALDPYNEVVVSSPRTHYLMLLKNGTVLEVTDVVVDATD

Binder	EC50 (CMV virions) [ng/mL]	EC50 Neutralizing [1] [ng/mL]	IC50 in ARPE-19 [1] [ng/mL]	Pair-wise inhibition (%) [2] [%]	Pair-wise inhibition (%) [3] [%]	Pair-wise inhibition (%) [4] [%]	Pair-wise inhibition (%) [5] [%]	Pair-wise inhibition (%) [6] [%]	Pair-wise inhibition (%) [7] [%]	Pair-wise inhibition (%) [8] [%]	Pair-wise inhibition (%) [9] [%]	Pair-wise inhibition (%) [10] [%]	Pair-wise inhibition (%) [11] [%]	Pair-wise inhibition (%) [12] [%]	Pair-wise inhibition (%) [13] [%]	Pair-wise inhibition (%) [14] [%]	Pair-wise inhibition (%) [15] [%]	Pair-wise inhibition (%) [16] [%]	Pair-wise inhibition (%) [17] [%]
1-103 (antibody, V domains shown) VH: QLQLQESGPGLVKPSETLSLTCSVSGDAISGSNYYWGWIRQPPGKGLQWIGSIYHTGSTFYNPSFSSRVTLSVDTSKNQFSLKLISVNAADTAVYYCARRIRGYSGTYDWGQGTLVTVSS VL: DIQLTQSPSFLSASVGDRVTITCRASQDISSYVAWYQQKPGNAPKLLISSASTLPSGVPSRFSGSRSGTDFTLTISSLQPEDFATYYCQQLNNFGPGTTVDIK	200	4	0.88	-12	-12	6	-10	-20	-7	-38	-4	-31	89	-49	-22	-35	-2	-28	-19
2-18 (antibody, V domains shown) VH: EVQLVQSGGGLVQPGGSLRVSCAASGFSFSDHDMDWVRQAPGKGFEWVGRSRNKDYSSTTEYAASVRGRFTISRHTSEDLLYLELNTVKTEDTAVYFCARGPHHSDRSGYYGGTFDIWGQGTMVTVSS VL: DIQMTQSPSSVSASVGDRVIITCRASQGISSWLAWYQQKPGRAPRLLIYDASTLESGVPSRFSGRGSGTEFTLTINSLQPEDFATYYCQQGNMFPLTFGGGTKVEIK	90	0.9	0.18	16	-1	10	97	117	15	17	8	6	8	12	-11	-6	-31	3	-1
